Test results: paper PMC9060507 (Proceedings of the National Academy of Sciences of the …, 2022)

Biological target: T1, Methylosinus trichosporium OB3b MbnBC enzyme complex (wild type) (Methylosinus trichosporium OB3b, UniProt A0A2D2D5M1;A0A2D2CY73)
T1 sequence 1: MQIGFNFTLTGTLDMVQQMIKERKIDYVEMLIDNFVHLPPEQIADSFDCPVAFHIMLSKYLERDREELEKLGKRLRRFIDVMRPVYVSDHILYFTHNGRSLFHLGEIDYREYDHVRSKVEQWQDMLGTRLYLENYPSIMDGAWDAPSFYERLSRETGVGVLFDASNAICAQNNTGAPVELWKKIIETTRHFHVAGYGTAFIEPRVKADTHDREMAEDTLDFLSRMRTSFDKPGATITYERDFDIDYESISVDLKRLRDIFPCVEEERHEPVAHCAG
T1 sequence 2: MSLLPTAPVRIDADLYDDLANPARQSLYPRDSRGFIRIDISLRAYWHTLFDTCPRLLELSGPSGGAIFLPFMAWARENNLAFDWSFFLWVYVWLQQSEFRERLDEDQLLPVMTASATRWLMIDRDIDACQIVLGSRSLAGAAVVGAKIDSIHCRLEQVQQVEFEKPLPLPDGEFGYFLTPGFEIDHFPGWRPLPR
Experiment: EPR spectroscopy

## MTVKIAQKKVLPVIGRAAALCGSCYPCSCM [MbnA precursor peptide from Ms. trichosporium OB3b]
  binding result: binds
